{
  "source": "patent US20240293509A1",
  "about": "“METHODS OF TREATING INFLAMMATORY BOWEL DISEASE” (UNIVERSITY OF PITTSBURGH - OF THE COMMONWEALTH SYSTEM OF …, priority 2021, published 2024)",
  "assay": "In vitro degradation of IL-2 in simulated gastric fluid",
  "assay_type": "in vitro ADME",
  "conditions": "free IL-2, pH 2.0, 100 min, 37° C., ELISA",
  "procedure": "In silico and in vitro degradation of bioactive factors within the gastric environment. The in silico cytokine degradation was predicted using the Expasy PeptideCutter software package (E. Gasteiger et al., in The Proteomics Protocols Handbook, J. M. Walker, Ed. (Humana Press, Totowa, N J, 2005), pp. 571-607). In vitro degradation of IL-2 was measured in simulated gastric fluid (Ricca Chemical Company, Arlington, Texas) at pH 2.0. For the second set of the experimental conditions, pepsin (3.2 μg/L, Sigma) was also included. The samples were incubated for […] at 37° C. on a rocker and then neutralized before ELISA assay (R and D systems) for the soluble factors. For the MP containing factors, following treatment in the simulated gastric fluid the MPs were removed and washed multiple times with PBS supplemented with BSA and then incubated for 22 hours in PBS with 0.5% BSA. The released IL-2 was then quantitated with an ELISA excluding that which was released during the initial […] incubation in the simulated gastric fluid.",
  "data": [
    {"substance": "IL-2: recombinant IL-2 (murine, R&D Systems); in silico prediction on SEQ ID NO: 9", "values": [
      {"measurement": "degradation in simulated gastric fluid containing pepsin", "value": "complete degradation"}
    ]}
  ]
}
